Laboratory results: EP1126866B1 (The Regents of the University of California, dated 2007)

Target: rat cardiac SR Ca2+ ATPase (SERCA2a), endogenous in rat cardiomyocytes (rat, UniProt P11507 1-1043)
Assay: cell-based or functional assay

Sequence of rat cardiac SR Ca2+ ATPase (SERCA2a), endogenous in rat cardiomyocytes (P11507 whole entry): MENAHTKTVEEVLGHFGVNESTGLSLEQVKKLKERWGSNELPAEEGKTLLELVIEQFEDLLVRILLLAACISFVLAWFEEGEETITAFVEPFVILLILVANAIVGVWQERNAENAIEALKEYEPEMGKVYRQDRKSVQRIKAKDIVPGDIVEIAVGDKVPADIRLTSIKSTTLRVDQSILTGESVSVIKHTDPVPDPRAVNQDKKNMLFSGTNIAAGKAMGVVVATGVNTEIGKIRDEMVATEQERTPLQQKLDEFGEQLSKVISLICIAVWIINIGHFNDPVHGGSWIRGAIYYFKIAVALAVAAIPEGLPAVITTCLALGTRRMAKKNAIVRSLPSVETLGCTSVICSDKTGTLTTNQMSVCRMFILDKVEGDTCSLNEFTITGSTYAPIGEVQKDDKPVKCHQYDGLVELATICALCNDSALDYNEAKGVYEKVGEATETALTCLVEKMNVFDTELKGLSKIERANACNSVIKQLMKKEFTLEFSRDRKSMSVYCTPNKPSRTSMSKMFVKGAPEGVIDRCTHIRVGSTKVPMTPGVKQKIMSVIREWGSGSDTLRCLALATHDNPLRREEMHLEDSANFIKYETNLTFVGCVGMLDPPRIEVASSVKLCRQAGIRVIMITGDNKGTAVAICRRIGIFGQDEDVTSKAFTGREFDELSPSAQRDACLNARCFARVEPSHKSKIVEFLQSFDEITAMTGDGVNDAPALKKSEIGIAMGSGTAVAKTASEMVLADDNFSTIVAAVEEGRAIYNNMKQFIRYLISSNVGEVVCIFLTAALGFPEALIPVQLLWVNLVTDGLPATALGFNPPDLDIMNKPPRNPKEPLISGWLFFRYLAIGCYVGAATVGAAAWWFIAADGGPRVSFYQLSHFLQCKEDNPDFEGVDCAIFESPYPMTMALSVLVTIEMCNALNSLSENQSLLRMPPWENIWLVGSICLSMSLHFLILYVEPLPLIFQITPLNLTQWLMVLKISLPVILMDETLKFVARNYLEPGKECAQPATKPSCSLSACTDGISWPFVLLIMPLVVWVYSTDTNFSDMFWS

B1: K3E/R14E double point mutation of PLB (other)
chain: MEEVQYLTRSAIREASTIEMPQQARQKLQNLFINFCLILICLLLICIIVMLL
EC50 of Ca2+ concentration at which the SR Ca2+ uptake activity is half-maximal (neonatal rat myocytes): 110 nM | lowering of the EC50 of Ca2+ for SR Ca2+ uptake (adult rat myocytes): 36%
